Here are results for two compounds from US8765669B2, “Glycosylated GLP-1 peptide” (Glytech, Inc., priority 2008, dated 2014).

No end group written: not given here.

This data set addresses T1, DPP-IV (dipeptidyl peptidase IV from porcine kidney) (Sus scrofa, UniProt P22411).
T1 construct: dipeptidyl peptidase IV from porcine kidney, product of SIGMA; purchased SIGMA; host or cells: porcine kidney (tissue-derived enzyme)
The data set can be described thus: Test of resistance to dipeptidyl peptidase IV (DPP-IV). Format: in vitro ADME. The following applies: half-life (t1/2) in DPP-IV solution at 37° C., GLP-1 of Comparative Example 1 defined as standard (=1). The method, then:
Each solution mixture was adjusted with 100 mM sodium phosphate buffer to 100 μl in total and allowed to react at 37° C. A 10 μaliquot of the reaction solution was mixed with 15 μl of 10% trifluoroacetic acid prepared in advance in another Eppendorf tube.

T1 sequence (P22411 whole entry): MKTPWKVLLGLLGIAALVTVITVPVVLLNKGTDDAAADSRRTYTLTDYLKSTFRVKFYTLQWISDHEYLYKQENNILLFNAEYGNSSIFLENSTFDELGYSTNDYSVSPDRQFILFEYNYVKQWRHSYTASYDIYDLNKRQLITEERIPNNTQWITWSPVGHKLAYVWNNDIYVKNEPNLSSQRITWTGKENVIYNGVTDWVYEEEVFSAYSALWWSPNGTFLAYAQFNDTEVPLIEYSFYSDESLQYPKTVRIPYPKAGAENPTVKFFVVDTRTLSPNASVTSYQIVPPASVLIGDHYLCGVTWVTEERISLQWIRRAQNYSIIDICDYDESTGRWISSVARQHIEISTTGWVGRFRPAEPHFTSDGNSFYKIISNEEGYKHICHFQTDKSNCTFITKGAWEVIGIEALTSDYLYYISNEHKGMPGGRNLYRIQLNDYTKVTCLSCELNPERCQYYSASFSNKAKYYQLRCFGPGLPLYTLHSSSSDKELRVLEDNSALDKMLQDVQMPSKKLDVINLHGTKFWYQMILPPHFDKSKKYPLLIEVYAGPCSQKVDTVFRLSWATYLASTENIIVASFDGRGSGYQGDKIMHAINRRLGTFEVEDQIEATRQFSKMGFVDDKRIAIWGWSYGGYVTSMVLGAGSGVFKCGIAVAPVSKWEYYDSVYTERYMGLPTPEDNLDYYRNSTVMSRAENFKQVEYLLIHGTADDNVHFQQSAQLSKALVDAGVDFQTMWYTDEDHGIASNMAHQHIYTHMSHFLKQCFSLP

On to “36Cys-hyaluronic acid octasaccharide (HA-8) Added GLP-1 Peptide (HAEGTFTSDVSSYLEGQAAKEFIAWLVKGC(hyaluronic acid octasaccharide)G) [Example 9]”, for which the “Relative Resistance” value came to 3.
As for `CC[C@H](C)[C@H](NC(=O)[C@H](Cc1ccccc1)NC(=O)[C@H](CCC(=O)O)NC(=O)[C@H](CCCCN)NC(=O)[C@H](C)NC(=O)[C@H](C)NC(=O)[C@H](CCC(N)=O)NC(=O)[C@H](CSCC(=O)N[C@@H]1O[C@H](CO)[C@@H](O[C@@H]2O[C@H](CO)[C@@H](O[C@@H]3O[C@H](CO[C@H]4O[C@H](CO)[C@@H](O)[C@H](O)[C@@H]4O[C@@H]4O[C@H](CO)[C@@H](O[C@@H]5O[C@H](CO[C@]6(C(=O)O)C[C@H](O)[C@@H](NC(C)=O)[C@H]([C@H](O)[C@H](O)CO)O6)[C@H](O)[C@H](O)[C@H]5O)[C@H](O)[C@H]4NC(C)=O)[C@@H](O)[C@H](O[C@H]4O[C@H](CO)[C@@H](O)[C@H](O)[C@@H]4O[C@@H]4O[C@H](CO)[C@@H](O[C@@H]5O[C@H](CO[C@]6(C(=O)O)C[C@H](O)[C@@H](NC(C)=O)[C@H]([C@H](O)[C@H](O)CO)O6)[C@H](O)[C@H](O)[C@H]5O)[C@H](O)[C@H]4NC(C)=O)[C@@H]3O)[C@H](O)[C@H]2NC(C)=O)[C@H](O)[C@H]1NC(C)=O)NC(=O)[C@H](CCC(=O)O)NC(=O)[C@H](CC(C)C)NC(=O)[C@H](Cc1ccc(O)cc1)NC(=O)[C@H](CO)NC(=O)[C@H](CO)NC(=O)[C@@H](NC(=O)[C@H](CC(=O)O)NC(=O)[C@H](CO)NC(=O)[C@@H](NC(=O)[C@H](Cc1ccccc1)NC(=O)[C@@H](NC(=O)CNC(=O)[C@H](CCC(=O)O)NC(=O)[C@H](C)NC(=O)[C@@H](N)Cc1c[nH]cn1)[C@@H](C)O)[C@@H](C)O)C(C)C)C(=O)N[C@@H](CSCC(=O)N[C@@H]1O[C@H](CO)[C@@H](O[C@@H]2O[C@H](CO)[C@@H](O[C@@H]3O[C@H](CO[C@H]4O[C@H](CO)[C@@H](O)[C@H](O)[C@@H]4O[C@@H]4O[C@H](CO)[C@@H](O[C@@H]5O[C@H](CO[C@]6(C(=O)O)C[C@H](O)[C@@H](NC(C)=O)[C@H]([C@H](O)[C@H](O)CO)O6)[C@H](O)[C@H](O)[C@H]5O)[C@H](O)[C@H]4NC(C)=O)[C@@H](O)[C@H](O[C@H]4O[C@H](CO)[C@@H](O)[C@H](O)[C@@H]4O[C@@H]4O[C@H](CO)[C@@H](O[C@@H]5O[C@H](CO[C@]6(C(=O)O)C[C@H](O)[C@@H](NC(C)=O)[C@H]([C@H](O)[C@H](O)CO)O6)[C@H](O)[C@H](O)[C@H]5O)[C@H](O)[C@H]4NC(C)=O)[C@@H]3O)[C@H](O)[C@H]2NC(C)=O)[C@H](O)[C@H]1NC(C)=O)C(=O)N[C@@H](Cc1c[nH]c2ccccc12)C(=O)N[C@@H](CC(C)C)C(=O)N[C@H](C(=O)N[C@@H](CCCCN)C(=O)NCC(=O)N[C@@H](CCCNC(=N)N)C(=O)NCC(=O)O)C(C)C` [Example 3, 22 and 30Cys-disialo oligosaccharide Chain Added GLP-1], the figure is 32.5.
